In patent US10858688B2, “Observation method using binding and dissociation probe” (KYOTO UNIVERSITY, priority 2015, dated 2020):

What was measured:
[1] = test system: microtubule; assay: IRIS image test (reconstruction image); type: cell-based, Xenopus laevis; set-up: key: “IRIS image” is positive (P) when above criterion (3) is met; conditions: reconstruction from 10000 frames with DAOSTORM
Protocol: (§1) […] It is possible to reconstruct an image of a target substance by integrating the central positions of the respective speckles. The IRIS image test of the above (3) whose result is described in table 1 was performed in the following procedures. By using all the speckle images of 10000 frames picked up in the localization test, the central point of a probe that has bound to a target in each frame of the speckle images was determined with nanometer accuracy by using DAOSTORM. By adding a large number of pieces of central point information in the fluorescence images of 10000 frames, a reconstruction image (observation image) was generated. Whether or not a distribution of a target molecule was able to be observed in that reconstruction image was determined, and when a distribution of a target molecule was observed, the result was treated as P (positive).

[2] = test system: microtubule; assay: Washability test of probe candidates; type: cell-based, Xenopus laevis; set-up: key: “washability” is positive (P) when above criterion (2) is met; conditions: speckles equal to or less than about 10% after switching imaging solution 10 to 20 times
Protocol: (§2) (2) It is possible to wash and remove a probe after SiMS imaging (imaging step);
(§3) The […] of the above (2), whose result is shown in table 1, was performed in the following procedures. […] This switching of imaging solution was conducted slowly so that the observation position would not shift. Next, an imaging solution not containing a probe and not containing the active oxygen-scavenging mix was switched 10 to 20 times. After the switching, for confirmation, for an XCT cell sample in the observation chamber, speckle images of 10 frames were picked up under a similar condition to that of the localization test described in the previous paragraph, and when the number of speckles confirmed in the speckle images (i.e., the number of probes that had bound) became sufficiently smaller (equal to or less than about 10%) than the number of the speckles in the speckle images before the washing operation, washing was determined to be possible and the result was treated as P (positive).

[3] = test system: microtubule; assay: Localization test of probe candidates (integrated SiMS images); type: cell-based, Xenopus laevis; set-up: key: “localization” is positive (P) when above criterion (1) is met; conditions: fixed, permeabilized XTC cell; lysate supernatant of EGFP fused probe; TIRF, 10000 frames
Protocol: (§4) HEK (Human embryonic kidney)-293F cells were transfected with a plasmid encoding a probe candidate protein tagged with FLAG-EGFP or 3×FLAG-EGFP. […] Centrifugal separation was performed on the lysate and the supernatant liquid was collected. In order to perform screening for a probe for IRIS, the binding capacity of a probe candidate in the supernatant liquid with respect to the structure of an XCT cell that was fixed with paraformaldehyde (PFA) and that received a permeabilization process was tested. The appearance and disappearance of single molecule speckles (Single-molecule speckles, SiMS) in the structure was tested. Screening was performed for a probe for IRIS in accordance with the following criteria:
(§5) (1) It is possible to confirm a distribution of target substances in the structure in an image resulting from adding SiMS images;
(§6) The localization test of the above (1), whose result is shown in table 1, was performed in the following procedures. First, the supernatant liquid of lysate of a cell that expressed each probe candidate was brought into contact with an XCT cell that was fixed on a coverglass and that received a permeabilization process. […] The obtained speckle images of 10000 frames were integrated so as to confirm whether or not a distribution of target substances in the cell (microtubule, intermediate filament, focal adhesion or actin filament) was able to be confirmed. When a distribution of a target substances was able to be confirmed, the result of the localization test was treated as P (positive).

[4] = test system: microtubule; assay: Measurement of binding half-life of probe-target complex; set-up: species or system Xenopus laevis; conditions: fixed XTC cell, single exponential fit
Text: (§7) A probe and a target substance have the following binding characteristics. […] The above half-life herein is preferably a half-life of a probe-target complex formed by binding between a probe and a target substance in a case when a medium containing a probe and a sample containing a target substance that is to be observed are brought into contact under a condition for performing an imaging step. […] Measurement procedures for the half-life are as below. […] Ndissociation is a cumulative relative frequency of a probe that dissociated. A cumulative relative frequency is a ratio of the speckles that disappeared within a given period of time to the total number of measured speckles (i.e. probes) (i.e. probes that dissociated within a given period of time), and represents the total number as 1. Then, by fitting the above complementary cumulative relative frequency function with an exponent function, that half-life is calculated.
The measurement of binding half-life, whose result is shown in table 1, was performed in the following procedures. Speckle images of 10000 frames picked up in the localization test were used in order to measure a period of time between the appearance of a probe that has bound to a target in a speckle image and disappearance through dissociation in a semi-manual mode by using Speckle TrackerJ, an ImageJ plug-in. In case of for example picking up of images with an exposure time of 50 ms and at a frame rate of 20 Hz, it is assumed that a period of time between the appearance and disappearance of a speckle that is observed in only one of consecutive frames is 50 ms and a period of time between the appearance and disappearance of a speckle observed in only two consecutive frames is 100 ms. […] Ndissociation is a cumulative relative frequency of probes that dissociated. Then, by fitting the complementary cumulative relative frequency function with an exponent function, the half-life was calculated. However, the binding half-life with respect to an actin filament of Atto488-Lifeact was measured by using a method that is described in detail in the section for FIG. 9 in the Brief Description of the Drawings.

[5] = test system: focal adhesion; assay: IRIS image test (reconstruction image); type: cell-based, Xenopus laevis; set-up: key: “IRIS image” is positive (P) when above criterion (3) is met; conditions: reconstruction from 10000 frames with DAOSTORM
Protocol: as §1

[6] = test system: focal adhesion; assay: Washability test of probe candidates; type: cell-based, Xenopus laevis; set-up: key: “washability” is positive (P) when above criterion (2) is met; conditions: speckles equal to or less than about 10% after switching imaging solution 10 to 20 times
Protocol: as §2, §3

[7] = test system: focal adhesion; assay: Measurement of binding half-life of probe-target complex; set-up: species or system Xenopus laevis; conditions: fixed XTC cell, single exponential fit
Text: as §7
The measurement of binding half-life, whose result is shown in table 1, was performed in the following procedures. […] Then, by fitting the complementary cumulative relative frequency function with an exponent function, the half-life was calculated. However, the binding half-life with respect to an actin filament of Atto488-Lifeact was measured by using a method that is described in detail in the section for FIG. 9 in the Brief Description of the Drawings.

[8] = test system: focal adhesion; assay: Localization test of probe candidates (integrated SiMS images); type: cell-based, Xenopus laevis; set-up: key: “localization” is positive (P) when above criterion (1) is met; conditions: fixed, permeabilized XTC cell; lysate supernatant of EGFP fused probe; TIRF, 10000 frames
Protocol: as §4, §5, §6

HALF-LIFE [4] [ms]	HALF-LIFE [7] [ms]	Molecule	IRIS IMAGE [1]	WASHABILITY [2]	LOCALIZATION [3]	IRIS IMAGE [5]	WASHABILITY [6]	LOCALIZATION [8]
106		MAP4 659-908: EGFP fused (N terminus) mouse MAP4 fragment, amino acid residues 659-908 of sequence number 4 (protein, UniProt P27546 659-908, looked up, fragment, N-terminal EGFP fusion) PPNKEPPPSPEKKAKPLATTQPAKTSTSKAKTQPTSLPKQPAPTTSGGLNKKPMSLASGSVPAAPHKRPAAATATARPSTLPARDVKPKPITEAKVAEKRTSPSKPSSAPALKPGPKTTPTVSKATSPSTLVSTGPSSRSPATTLPKRPTSIKTEGKPADVKRMTAKSASADLSRSKTTSASSVKRNTTPTGAAPPAGMTSTRVKPMSAPSRSSGALSVDKKPTSTKPSSSAPRVSRLATTVSAPDLKSV	P	P	P			
	138	Paxillin 167-557: EGFP fused (N terminus) human Paxillin fragment, residues 167-557 of sequence number 15 (protein, UniProt P49023 167-557, looked up, fragment, N-terminal EGFP fusion) ANSSPPLPGALSPLYGVPETNSPLGGKAGPLTKEKPKRNGGRGLEDVRPSVESLLDELESSVPSPVPAITVNQGEMSSPQRVTSTQQQTRISASSATRELDELMASLSDFKIQGLEQRADGERCWAAGWPRDGGRSSPGGQDEGGFMAQGKTGSSSPPGGPPKPGSQLDSMLGSLQSDLNKLGVATVAKGVCGACKKPIAGQVVTAMGKTWHPEHFVCTHCQEEIGSRNFFERDGQPYCEKDYHNLFSPRCYYCNGPILDKVVTALDRTWHPEHFFCAQCGAFFGPEGFHEKDGKAYCRKDYFDMFAPKCGGCARAILENYISALNTLWHPECFVCRECFTPFVNGSFFEHDGQPYCEVHYHERRGSLCSGCQKPITGRCITAMAKKFHPE				P	P	P
	91	Paxillin 54-498: EGFP fused (N terminus) human Paxillin fragment, residues 54-498 of sequence number 15 (protein, UniProt P49023 54-498, looked up, fragment, N-terminal EGFP fusion) SSEALNGTILDPLDQWQPSSSRFIHQQPQSSSPVYGSSAKTSSVSNPQDSVGSPCSRVGEEEHVYSFPNKQKSAEPSPTVMSTSLGSNLSELDRLLLELNAVQHNPPGFPADEANSSPPLPGALSPLYGVPETNSPLGGKAGPLTKEKPKRNGGRGLEDVRPSVESLLDELESSVPSPVPAITVNQGEMSSPQRVTSTQQQTRISASSATRELDELMASLSDFKIQGLEQRADGERCWAAGWPRDGGRSSPGGQDEGGFMAQGKTGSSSPPGGPPKPGSQLDSMLGSLQSDLNKLGVATVAKGVCGACKKPIAGQVVTAMGKTWHPEHFVCTHCQEEIGSRNFFERDGQPYCEKDYHNLFSPRCYYCNGPILDKVVTALDRTWHPEHFFCAQCGAFFGPEGFHEKDGKAYCRKDYFDMFAPKCGGCARAILENYISALNTLWHPE				P	P	P
